Test results taken from US12454527B2, “Conjugate monomethyl auristatin E to obtain a composition for treatment of prostate cancer” (priority 2019, dated 2025).
Where “and” joins values, the source holds several entries; their conditions need not be identical. Equal values may be shown once. Entries after “also recorded” stand apart in the source; their conditions may differ. Starred links: 1 amine or outer side, 2 acyl side, 3 side chain; linkers in the order of their positions; H or OH if unused. Non-standard residues stand in square brackets, D forms with d. Residues, ends and D or L forms follow the SMILES beside them. ξ: configuration not given here. *: point of attachment. GluureaLys(ε-3-ClBenzyl) = O=C(O)CC[C@H](NC(=O)N[C@@H](CCCCN(Cc1cccc(Cl)c1)*)C(=O)O)C(=O)O; Dolaproine = CO[C@@H]([C@@H]1CCCN1)[C@@H](C)C(=O)O; Dil = CC[C@H](C)[C@H](NC)[C@@H](CC(=O)O)OC; X1 = O=C(CCCc1cn(CCCN[*:1])nn1)[*:2]; PABC = O=C(OCc1ccc(N[*:1])cc1)[*:2]; X2 = C[C@@H](N*)[C@@H](O)c1ccccc1; Cit = NC(=O)NCCC[C@H](N)C(=O)O; Suc = O=C(CCC(=O)[*:2])[*:1]; NMeV = CN[C@H](C(=O)O)C(C)C; ξV = CC(C)C(N)C(=O)O; Ahx = NCCCCCC(=O)O

Assays:
[1] = Acute toxicity study, single intravenous administration, mice; assay type: in vivo
Excerpt: Acute toxicity study of Conjugate (I) product on mice and rats.
• 1. Conjugate (I). • 2. Solubilizer Pluronic F127—in the amount, five-fold greater than the conjugate amount by weight. • 3. Diluent Haemodes infusion solution. • 4. Dimethyl sulfoxide—in the amount of 5% of the prepared volume.
The experiment took white outbred male mice aged about 2 months with body weight of 19-21,g, and also white outbred mature male rats aged about 2 months with body weight 190-210 g.
Acute toxicity study was performed within the intravenous administration. Before the start of the experiment to determine an acute toxicity, the animals were deprived of food and water (mice were deprived for 2 hours, rats—for 10-12 hours), and then weighed. Then each animal received the intravenous drug injection according to the study design, in a volume not exceeding the acceptable single injection volume: 0.5 mL for mice, 2 mL for rats, and fractionally if necessary. The control group of animals received Pluronic solution in Haemodes in the proportion used fort dose preparation of 78 mg/kg for mice and 38 mg/kg for rats. The duration of observation for laboratory animals was 14 days. During this period, visible signs of intoxication were assessed (see Table 9).

Lymphoid Leukosis P388 = experiment: Antineoplastic activity on lymphoid leukosis P388 model (lifespan/survival); assay type: in vivo, male mice BDF1; conditions: 0.5 and 1 mg/kg
Description: Lymphoid Leukosis P388 (male mice BDF1)—observation was held for 30 days since the first product administration (the product administration was started 24 hours after revaccination) and it was administered 3 times intraperitoneally in a day.
• 1. Group 1—tumor growth control (TGC) • 2. Group 2—placebo (diluent) • 3. Group 3—intraperitoneal Conjugate (I) administration in a dose of 0.5 mg/kg 3 times; • 4. Group 4—intraperitoneal Conjugate (I) administration in a dose of 1.0 mg/kg 3 times:
Experimental animals of control group (TGC) were administered with 0.9% saline, the placebo group was injected with the diluent (DMSO+Haemodes) of similar volume. The antineoplastic activity was determined according to mice lifespan.

Melanoma B16 = experiment: Antineoplastic activity on melanoma B16 model (tumor growth inhibition); assay type: in vivo; conditions: for Tumor volume, Mean / TGI %: B16, 1.0 mg/kg; for TGI %: vs TGC; for Tumor volume (individual tumors): s.c. B16 melanoma, 1.0 mg/kg i.p. x3, 1 mg/kg
Description: Melanoma B16-30 days after the first product administration (the product administration was started 48 hours after revaccination) and it was administered 3 times intraperitoneally in 5 days,
• 1. Group 1—diluent (placebo) • 2. Group 2—intraperitoneal Conjugate (I) administration in a dose of 1 mg/kg 3 times:
Experimental animals of control group (TGC) were administered with the diluent (DMSO+Haemodes) of similar Volume (placebo product). The measurement of tumor node was performed three times (on. Day 1, 4 and 8 after treatment completion), The antineoplastic activity was determined according to the standard parameters: tumor growth inhibition TGI (>50%). The survival observation was continued up to 30 days (Table 3).

[2] = Chronic toxicity study, intravenous once every 3 weeks, rabbits; assay type: in vivo
Excerpt: (§1) Chronic toxicity study of Conjugate (1) product on Rats and rabbits.
(§2) • 1. Conjugate (I). • 2. Solubilizer Pluronic F127—in the amount, five-fold greater than the conjugate amount by weight. • 3. Diluent—Haemodes infusion solution. • 4. Dimethyl sulfoxide—in the amount of 5% of the prepared volume.
(§3) A 1 00 white ° inbred mature male rats about 2 months old with a body weight of 190-210 g and 60 sexually mature male rabbits of the Soviet Chinchilla breed about 2 months old with a body weight of […] were involved in the experiment.
(§4) The study design determined the intravenous administration of the test drugs once every 3 weeks for 3 months (a total of 4 injections) for the experiment of chronic toxicity determination. The local irritant effect of the products within intravenous administration will be studied together with the chronic toxicity study.
(§5) Each animal received the intravenous injection of the test drug or the reference drug in a volume not exceeding the acceptable volume for a single injection of 2 mL for rats and 20 mL for rabbits. The products were replaced with a Pluronic solution with DMSO in Haemodes in the control group of animals. The duration of observation for laboratory animals was 4 weeks (intermediate stage).
(§6) Apparent signs of intoxication were evaluated daily. During the study, integral indicators of animal health were recorded (see Tables 15. 16, 17).

[3] = Chronic toxicity study, intravenous once every 3 weeks, rats; assay type: in vivo; conditions: for Necropsy / Signs of intoxication: male rats
Excerpt: as §1, §2, §3, §4, §5, §6

[4] = male rabbits, group 7, 81 μg/kg intravenously 1 time in 3 weeks
[5] = male rabbits, group 8, 102 μg/kg intravenously 1 time in 3 weeks
[6] = group 2, 150 μg/kg intravenously 1 time in 3 weeks
[7] = group 3, 188 μg/kg intravenously 1 time in 3 weeks

CC[C@H](C)[C@@H]([C@@H](CC(=O)N1CCC[C@H]1[C@H](OC)[C@@H](C)C(=O)N[C@H](C)[C@@H](O)c1ccccc1)OC)N(C)C(=O)[C@@H](NC(=O)[C@H](C(C)C)N(C)C(=O)OCc1ccc(NC(=O)[C@H](CCCNC(N)=O)NC(=O)C(NC(=O)CCCc2cn(CCCNC(=O)[C@H](Cc3ccc(O)cc3)NC(=O)[C@H](Cc3ccccc3)NC(=O)CCC(=O)NCCCCCC(=O)N(CCCC[C@H](NC(=O)N[C@@H](CCC(=O)O)C(=O)O)C(=O)O)Cc3cccc(Cl)c3)nn2)C(C)C)cc1)C(C)C (stereo partly shown) [Conjugate (I)] ({GluureaLys(ε-3-ClBenzyl)-Ahx-Suc}-FY[X1][ξV][Cit][PABC][NMeV]V[Dil][Dolaproine]-X2)
Body weight dynamics, M ± SD ([1]; male mice, 3 mg/kg, Day 5): −13.2 ± 5.1 % of initial body weight | Body weight dynamics (individual animals) ([1]; male mice, 3 mg/kg, Day 5, listed as test drug, 3 mg/kg): −6.3 % of initial body weight and −19.0 % of initial body weight and −15.4 % of initial body weight and −22.1 % of initial body weight and −11.0 % of initial body weight and −11.4 % of initial body weight and −13.3 % of initial body weight and −13.8 % of initial body weight and −5.6 % of initial body weight and −13.9 % of initial body weight | Body weight dynamics, M ± SD ([1]; male mice, 3 mg/kg, Day 10): 9.9 ± 11.7 % of initial body weight | Body weight dynamics (individual animals) ([1]; male mice, 3 mg/kg, Day 10, listed as test drug, 3 mg/kg): 0.0 % of initial body weight and 16.8 % of initial body weight and 18.8 % of initial body weight and −9.1 % of initial body weight and 18.6 % of initial body weight and 16.3 % of initial body weight and 13.8 % of initial body weight and 17.9 % of initial body weight and 18.9 % of initial body weight and −9.9 % of initial body weight | Body weight dynamics, M ± SD ([1]; male mice, 3 mg/kg, Day 14): 29.1 ± 9.1 % of initial body weight | Body weight dynamics (individual animals) ([1]; male mice, 3 mg/kg, Day 14, listed as test drug, 3 mg/kg): 36.1 % of initial body weight and 30.5 % of initial body weight and 32.7 % of initial body weight and 13.9 % of initial body weight and 34.3 % of initial body weight and 35.1 % of initial body weight and 25.7 % of initial body weight and 35.7 % of initial body weight and 35.2 % of initial body weight and 11.9 % of initial body weight | Body weight dynamics, M ± SD ([1]; male mice, 5 mg/kg, Day 5): −20.9 ± 7.6 % of initial body weight | Body weight dynamics (individual animals) ([1]; male mice, 5 mg/kg, Day 5, listed as test drug, 5 mg/kg): −27.1 % of initial body weight and −14.3 % of initial body weight and −28.2 % of initial body weight and −23.8 % of initial body weight and −26.1 % of initial body weight and −6.0 % of initial body weight and −22.4 % of initial body weight and −12.0 % of initial body weight and −21.0 % of initial body weight and −27.8 % of initial body weight | Body weight dynamics, M ± SD ([1]; male mice, 5 mg/kg, Day 10): −4.3 ± 13.0 % of initial body weight | Body weight dynamics (individual animals) ([1]; male mice, 5 mg/kg, Day 10, listed as test drug, 5 mg/kg): −6.7 % of initial body weight and −12.9 % of initial body weight and 1.0 % of initial body weight and −20.8 % of initial body weight and 13.9 % of initial body weight and −18.0 % of initial body weight and 16.8 % of initial body weight and −5.2 % of initial body weight and −6.8 % of initial body weight | Body weight dynamics, M ± SD ([1]; male mice, 5 mg/kg, Day 14): 20.5 ± 10.5 % of initial body weight | Body weight effect (summary) ([1]; male mice, all test doses): decreased growth rate or decreased body weight regarding the initial one | Fatality ([1]; male mice, i.v. 3 mg/kg): 0 | Fatality ([1]; male mice, i.v. 5 mg/kg): 1 | Fatality ([1]; male mice, i.v. 6 mg/kg): 3 | Fatality ([1]; male mice, i.v. 7 mg/kg): 10 | MTD at 14 days ([1]; male, white outbred, mouse, in vivo, iv, mice, single i.v., read-out: Maximum tolerated dose): 3 mg/kg | Toxic effect (summary) ([1]; mice, acute i.v.): renal damage, decreased motor activity, dose-dependent hindlimb paresis | Signs of intoxication ([1]; mice, single i.v. 2 mg/kg): No signs of intoxication | Signs of intoxication ([1]; mice, single i.v. 3 mg/kg): 3-4 days - general health deterioration, the occurring hindlimb paresis | Signs of intoxication ([1]; mice, single i.v. 7 mg/kg): 3-4 days - general health deterioration, the occurring hindlimb paresis, decrease movement activity | Signs of intoxication ([1]; mice, single i.v. 8 mg/kg): 5 days - all animals had disheveled fur, gastrointestinal bleeding, hindlimb paresis. One animal | Signs of intoxication ([1]; mice, single i.v. 9 mg/kg, listed as test drug, 9 mg/kg): The animals demonstrated a shortness of breath right after administration, the next day - a shortness; also recorded: Days 3 (3), 4 (5), 5 (1), 6 (1) | Signs of intoxication ([1]; mice, single i.v. 30 mg/kg): All animals were observed with a shortness of breath right after administration, developing | Signs of intoxication ([1]; mice, single i.v. 45 mg/kg, listed as test drug, 45 mg/kg): All animals were observed with a shortness of breath right after administration, developing; also recorded: died during 12 hours | Signs of intoxication ([1]; mice, single i.v. 60 mg/kg): All animals were observed with a shortness of breath right after administration, developing | LD50 at 14 days ([1]; white outbred, mouse, in vivo, iv, male mice, single i.v., read-out: LD50 (median lethal dose)): 6.3 mg/kg | Antineoplastic activity (Lymphoid Leukosis P388): presence of the antineoplastic activity | Tumor volume, Mean (Melanoma B16; day 1): 66 mm^3 | TGI % (Melanoma B16; day 1): 75% | Tumor volume, Mean (Melanoma B16; day 4): 433 mm^3 | TGI % (Melanoma B16; day 4): 62% | Tumor volume, Mean (Melanoma B16; day 8): 898 mm^3 | TGI % (Melanoma B16; day 8): 61% | Tumor volume (individual tumors) (Melanoma B16; day 1 after treatment): 135 mm^3 and 72 mm^3 and 64 mm^3 (2×) and 48 mm^3 and 90 mm^3 and 36 mm^3 and 16 mm^3 | Tumor volume (individual tumors) (Melanoma B16; day 4): 768 mm^3 and 364 mm^3 and 476 mm^3 and 220 mm^3 and 544 mm^3 and 525 mm^3 and 120 mm^3 and 448 mm^3 | Tumor volume (individual tumors) (Melanoma B16; day 8): 1,030 mm^3 and 855 mm^3 (2×) and 1,045 mm^3 and 675 mm^3 and 1,144 mm^3 and 972 mm^3 and 560 mm^3 | Necropsy [2, 4]: None | Signs of intoxication [2, 4]: No signs of intoxication | Necropsy [2, 5]: None | Signs of intoxication [2, 5]: No signs of intoxication | Necropsy ([2]; male rabbits, group 9, 122 μg/kg intravenously 1 time in 3 weeks): None | Signs of intoxication: the intake of food and water ([2]; male rabbits, group 9, 122 μg/kg, after administration): decreased. | Main observed toxic effect ([2]; rabbits, chronic): decreased body weight gain | Chronic toxicity (overall) ([2]; rabbits, i.v. once every 3 weeks, intermediate stage 4 weeks): moderate toxicity | Necropsy [3, 6]: None | Signs of intoxication [3, 6]: No signs of intoxication | Necropsy [3, 7]: None | Signs of intoxication [3, 7]: No signs of intoxication | Necropsy ([3]; group 4, 225 μg/kg intravenously 1 time in 3 weeks): None | Signs of intoxication ([3]; group 4, 225 μg/kg, 2-3 days after the first administration, all animals, finishing on days 6-7): group developed diarrhea finishing on | Signs of intoxication ([3]; group 4, 225 μg/kg, 2-3 days after the second administration): animals showed diarrhea. | Main observed toxic effect ([3]; rats, chronic): decreased body weight gain | Rat excretory system: urine volume ([3]; rats, chronic): reliable decreased urine volume | Chronic toxicity (overall) ([3]; rats, i.v. once every 3 weeks, intermediate stage 4 weeks): moderate toxicity
